In the supplement of paper PMC10567573:

B1: TOR1AIP2 (parent)
chain: YTSSQKVSPIQIDGAGRTWQDSDT

Variants of: B1
Assay: protein stability index of a GFP-peptide fusion (GPS, HEK-293T) (PSI 1-6); higher = more stable
Conditions: c terminus: a fixed tail appended
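Further: lentivirally expressed fusions sorted by FACS into six bins by GFP to DsRed ratio, PSI derived from sequencing read proportions per bin multiplied by bin number.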

Protein stability index, by site and new letter:
G14: C 4.45; A 3.37
S8: T 3.36; W 3.33; H 2.57; A 3.52; P 3.1; V 2.67; Y 2.16; L 2.82; D 2.9; N 4; M 3.06; I 2.35; R 2.67; Q 3.17; K 3.46; F 2.75; E 4.47; G 3.25; C 3.12
D13: S 2.86; F 1.67; N 3.15; M 2.21; Y 1.96; L 2.29; H 2.64; G 3.07; C 2.79; E 3.33; K 2.77; W 1.54; I 2.35; V 2.39; Q 3.27; P 2.87; A 3.2; R 2.36; T 2.87
I12: G 4.59; E 5; R 3.63; P 3.99; L 3.29; Q 4.03; W 2.55; N 3.65; S 3.08; F 3.24; T 3.65; Y 3.19; K 3.76; D 4.12; V 2.97; A 3.68; H 4.21; C 2.7; M 3.5
P9: S 4.38; R 3.37; L 3.74; K 3.71; A 3.34; C 3.02; M 3.12; Y 2.22; F 2.05; V 2.66; Q 3.44; T 3.98; N 3.49; D 3.94; H 3.22; E 4.28; I 2.69; G 3.45
Q5: G 3.38; V 3.31; P 2.96; I 3.12; D 4.04; T 3.6; R 3.35; K 3.45; N 3.04; H 2.87; E 4.2; L 3.58; S 3.87; M 3.86; Y 2.34
K6: C 3.04; S 3.51; I 3.67; D 4.86; W 3.33; A 3.58; P 4.01; Y 1.31; V 3.52; L 2.9; E 4.82; M 3.6; R 3.41; H 3.51; F 3.73; T 4.03; N 3.97; G 3.42; Q 3.76
I10: A 3.77; V 4.1; E 4.58; W 2.4; G 3.85; F 1.85; P 4.18; D 4.32; Y 1.57; T 3.96; S 3.93; N 4.2; R 3.76; Q 4; K 3.33; C 3.25; L 3.52; H 3.5; M 3.44
Q11: W 5.21; I 2.72; K 3.95; A 2.96; H 3.67; Y 2.2; E 3.81; F 2.06; G 2.06; N 3.4; S 3.73; P 3.93; T 3.56; M 3.16; C 2.47; R 3.11; L 2.8; D 3.96; V 2.84
V7: E 3.46; H 3.58; R 3.43; I 2.9; L 3.12; A 3.41; T 3.78; D 3.67; S 3.52; P 3.6; K 4.03; Y 1.54; N 3.97; G 3.96; C 2.67; M 2.51; Q 4.19; F 3.64
